# Source: patent publication US20220169720
# Experiments:
# [1] = system: Rubicon (RUN domain protein as Beclin-1 interacting and cysteine-rich containing), wild-type
# [2] = system: Rubicon mutant's 117-189 amino acids (phosphor-null mutants, single serine/threonine substituted with alanine)
# Chain of Rubicon (RUN domain protein as Beclin-1 interacting and cysteine-rich containing), wild-type (chain, as listed by the source): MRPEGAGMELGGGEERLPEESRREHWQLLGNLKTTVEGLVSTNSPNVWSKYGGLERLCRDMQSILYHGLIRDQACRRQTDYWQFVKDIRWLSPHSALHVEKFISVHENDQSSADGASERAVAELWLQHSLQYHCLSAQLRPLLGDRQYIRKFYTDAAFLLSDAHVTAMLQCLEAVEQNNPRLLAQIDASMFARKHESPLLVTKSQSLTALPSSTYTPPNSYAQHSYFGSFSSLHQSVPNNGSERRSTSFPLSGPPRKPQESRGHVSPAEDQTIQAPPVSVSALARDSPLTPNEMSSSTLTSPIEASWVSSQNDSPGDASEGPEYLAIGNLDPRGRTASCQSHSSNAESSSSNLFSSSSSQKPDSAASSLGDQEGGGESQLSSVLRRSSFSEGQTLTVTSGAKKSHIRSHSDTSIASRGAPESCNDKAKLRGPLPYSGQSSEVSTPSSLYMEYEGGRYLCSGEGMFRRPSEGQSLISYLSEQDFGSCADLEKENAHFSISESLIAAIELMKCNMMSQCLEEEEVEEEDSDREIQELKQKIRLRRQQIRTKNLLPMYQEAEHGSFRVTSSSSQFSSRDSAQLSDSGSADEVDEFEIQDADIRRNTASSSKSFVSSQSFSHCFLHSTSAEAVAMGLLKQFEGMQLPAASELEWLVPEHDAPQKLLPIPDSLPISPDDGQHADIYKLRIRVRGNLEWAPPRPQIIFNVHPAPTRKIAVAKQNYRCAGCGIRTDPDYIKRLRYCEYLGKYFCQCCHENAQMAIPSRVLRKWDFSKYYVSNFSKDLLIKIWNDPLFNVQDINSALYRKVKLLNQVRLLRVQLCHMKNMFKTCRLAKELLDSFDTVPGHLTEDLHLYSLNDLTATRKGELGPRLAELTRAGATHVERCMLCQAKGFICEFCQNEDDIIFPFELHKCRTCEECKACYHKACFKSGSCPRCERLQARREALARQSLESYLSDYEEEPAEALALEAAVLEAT
substance,measurement,setting,value
"Leucine-rich repeat kinase 2 (LRRK2), wild-type",extent of Rubicon phosphorylation by LRRK2 kinase (kinase assay with wild-type or phosphor-null mutant Rubicon as substrate),[1],determined T166 and S189 as the consensus LRRK2-specific phosphosites
same,pT166-Rubicon by ELISA in human neurons transiently over-expressing wild-type (WT) LRRK2,[1],12% and 26% increase in pT166-Rubicon respectively compared to control
same,pT166-Rubicon by ELISA in human neurons with endogenous LRRK2 knocked down,[1],32.4% decrease in pT166-Rubicon compared to control
same,amount of generated ADP as a by-product of LRRK2 kinase activity,[2],Rubicon mutant's 117-189 amino acids significantly decreased LRRK2 kinase activity
mutant LRRK2-G2019S,pT166-Rubicon by ELISA in human neurons transiently over-expressing mutant LRRK2-G2019S,[1],12% and 26% increase in pT166-Rubicon respectively compared to control
